This is an account of results in patent publication US20040254135, “Modulation of metabolism of steroids and xenobiotics” (published 2004).

Data set [1] concerns the target SXR:RXR heterodimer (UniProt O75469;P19793 O75469:1-434,P19793:1-462). Nature of the data set: EMSA.
Data set [2] concerns the target CAR:RXR heterodimer (UniProt Q14994;P19793 Q14994:1-352,P19793:1-462). Nature of the data set: EMSA.

CAR:RXR heterodimer, sequence (Q14994 whole entry, chain 1 of 2): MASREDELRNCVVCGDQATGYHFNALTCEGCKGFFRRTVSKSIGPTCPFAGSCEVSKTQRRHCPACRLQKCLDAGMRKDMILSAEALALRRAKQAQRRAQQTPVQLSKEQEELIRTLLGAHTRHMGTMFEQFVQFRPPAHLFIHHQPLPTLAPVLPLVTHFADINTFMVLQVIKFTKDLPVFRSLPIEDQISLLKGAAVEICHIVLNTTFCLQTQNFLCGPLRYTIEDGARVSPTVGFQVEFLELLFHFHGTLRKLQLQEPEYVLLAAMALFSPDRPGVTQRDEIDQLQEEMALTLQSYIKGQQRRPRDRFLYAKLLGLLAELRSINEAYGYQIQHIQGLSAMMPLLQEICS
CAR:RXR heterodimer, sequence (P19793 whole entry, chain 2 of 2): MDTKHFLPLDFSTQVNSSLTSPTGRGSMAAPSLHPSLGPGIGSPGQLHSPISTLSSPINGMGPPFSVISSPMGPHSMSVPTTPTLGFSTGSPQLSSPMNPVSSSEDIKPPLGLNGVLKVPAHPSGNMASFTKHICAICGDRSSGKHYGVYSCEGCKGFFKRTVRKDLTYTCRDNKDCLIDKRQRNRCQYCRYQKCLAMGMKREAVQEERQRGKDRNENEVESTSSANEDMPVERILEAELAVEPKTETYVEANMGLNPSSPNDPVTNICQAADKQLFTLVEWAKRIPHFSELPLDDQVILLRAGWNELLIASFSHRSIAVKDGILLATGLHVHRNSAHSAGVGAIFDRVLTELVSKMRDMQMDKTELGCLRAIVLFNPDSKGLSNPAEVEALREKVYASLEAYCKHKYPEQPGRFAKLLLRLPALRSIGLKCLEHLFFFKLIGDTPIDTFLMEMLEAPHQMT
SXR:RXR heterodimer, sequence (O75469 whole entry, chain 1 of 2): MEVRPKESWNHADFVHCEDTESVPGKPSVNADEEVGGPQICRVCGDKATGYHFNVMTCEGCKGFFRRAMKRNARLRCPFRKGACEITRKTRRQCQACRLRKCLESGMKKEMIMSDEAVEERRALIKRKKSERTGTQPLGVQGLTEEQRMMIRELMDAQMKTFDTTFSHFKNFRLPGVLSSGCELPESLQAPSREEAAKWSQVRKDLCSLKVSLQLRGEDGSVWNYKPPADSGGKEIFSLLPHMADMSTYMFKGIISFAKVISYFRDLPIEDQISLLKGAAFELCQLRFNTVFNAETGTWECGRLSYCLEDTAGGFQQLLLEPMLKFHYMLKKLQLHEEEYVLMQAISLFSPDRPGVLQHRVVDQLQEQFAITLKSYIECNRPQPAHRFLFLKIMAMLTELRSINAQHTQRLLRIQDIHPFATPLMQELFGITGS
SXR:RXR heterodimer, sequence (P19793 whole entry, chain 2 of 2): as the sequence (P19793 whole entry, chain 2 of 2) above

B1: UGT1A6 DR-3 (dsDNA)
DNA 1: ACTGTAGTTCATAAAGTTCACATGG
DNA 2: CCATGTGAACTTTATGAACTACAGT
Turning to B1, the binding result in data set [1] and in data set [2] was “binds” each time.
